Measured values taken from the DeepSol protein solubility set.

test: soluble on expression in E. coli; label from the status in PepcDB or PDB records

Soluble on expression in E. coli, soluble:
MSLRMKVFEIVKSSTENEIVRIHVELPRLKYLKDSNFEEKFNSEVEEKIKKFVNEVKGIAQEDHDKDVQHTPYEAYVSVDVRYEGKDFLSFVVYYYQFTGGAHGITFFETYNIDLKNSKVLKLYDIIKEEAEDTIKSNILKQIEQNNTDFFPDAPMNILKDDIFSREFTISKDGLIIMYPHYDLAPYASGMPEFVIPWNVIEKFLKYDILSLLKEGHHHHHH
MSLRPDMSRLTMIRFLTEIDYPPFNFTGADGNPAGFNVDLARALCDEIKITCTVQMRKFETLLDALASNRGDAIIASLAVTPQTRTKLDFTDPYYRTPARFVARKDAVMPEMRPEFLEGRKVGAVAGSAHEAYLKAMFTDAELHSYPNAEALRAALKRGEVDFIFGDAISLAFWINGTDSENCCAFSGAPFLESRYFGEGVGIAVRKGNDTLRQALNWALFRVWEKGQYTDLWLRYFSVSEGHHHHHH
MSLRRFKFQYKETIVTILTENEEFYKTAVKAILEARSEIEDYILHNPDFFTSYEPIECSGGEIINRMCNAAKIAGVGPMAAVAGTIAAYAVEKMIDAGAKLAVVDNGGDIVIHSDRELLVGIYPSKLAFKVPPVDYLAICTSSGKIGHSVSFGKADAATVVARDASVADALATALGNLIGDFGKKELEKTVSEFYGKYSDFVEGILVVKDELVALAGNLPSLAFAESKEDLITKGEGHHHHHH
MSLRTLPAIVMMTLYALAGLAHAQQPPWRVGFCQDTLDIPWRAAQAMTFSQTLQTDKRFQVILSDAKGNTTQQAIDLEHMVERGVHVLVTSPRDGAVLTPVISNIYRQGVPVVLLSRRTLDENFTTFIAPDDAEIGRQAARYLSKRLNEKGKILVIQGLGSASTTQQRTVGFIQELSLHPHMQIVAQPFANYKKEMAILIMESILAQKLPFDAIYVHSDAMALGAILALKRAGIDPTKLPIVSIDYTRAGRESLRKGEIDAIFTYPNGVKQGITAVKRILAGQPVNKFQTVPSTLVTQENINTLEPVEGHHHHHH
MSLRVRTPSDDPVASAQIELIKQRINNIELFQNNRQAADSALRLEEGILSNAVNSLHRLREIQIQAGNPSLSEEDRKTLAVEAQALLNQLLDYANTKDSNGSYMFSGSKSLTQPVSLNLSGQYVYNGDSTQRFQAVTTSLLVAVNDTGDNVFMRIPSGNGRFAIRETLTPNTGTASVSSGSVTNEAAFVPDNYTMTFALNSQGNLVVMVSGTLSGNVIPPSGLPDDAPLYQEGSAIGFNGMEMVVSGLPKAGDSFSISPAKNESIFSTVQRMINNLNKPYTSSVEKAATQTENNQLLAQIDSALGHILSVQSDLGARLNQLETAEKANNDYLDISAATLKKLREIDPVAVATELNLQLVNLQAAQLSFTRIQGLSLFNFLEGHHHHHH
MSLSDDVALPLEFTDAAANKVKSLIADEDNPNLKLRVYITGGGCSGFQYGFTFDDQVNEGDMTIEKQGVGLVVDPMSLQYLVGGSVDYTEGLEGSRFIVTNPNAKSTCGCGSSFSIEGGSHHHHHH
MSLSDPNTSGSGVVGESSGVRVAIEGCGHGCLHSIYASVERAAALKGWDGVDLLIIGGDFQAVRNSNDMACMSVPNKYKEIGDFHEYYSGQRTAPYLTIFVGGNHEASNHLFELYYGGWVAPNIYYMGAANVLRFGPLRIAGLSGIWKGRDYRKPHFERLPYNDDDIKSIYHVRELDVRKLLQVRTQIDVGLSHDWPRQIEYCGDWQQLFRAKPLFRRDSQNGTLGSTAAEYVLNRLRPAYWFSAHLHVKFAASVQHGPQEVVPNRQYGLDGASLTSMLSETEEASRQTGYSQAEAEPNAHAVSETGTTEEGHHHHHH
MSLSDQPVLFSRAAASCRLTLNREDKCHAINEEMIESLDHYLNEIENDTALRLVELTATGDKFFCAGGDIKSWSAYSPLDMGRKWIKRGNDVFNRLRNLPQLTVANLNGHTIGGGIELALCCDIRIARPHAKFSNPEVMLGMVPGWMGIERVLNQVGPVVGRQMLMLGKRLTAQEAQAANLIDEVVEKEQVESWMANQLAQLEKCGPVALAHIKQLILALENKHADYSHQLLAGLMSATQDCQQATHAFAEKAGVSFHNQEGHHHHHH
MSLSETASAENLLGAYLKDRRTRLDAAAFGLSGSRRRTPGLRREEVAQRANISPTWYTWLEQGRGGAPSADVLDRIARALMLTDVEREHLFLIGLGRPPEVRYQASDGVSPRLQRVLDALAFSPALVRTATWDVVAWNRAATAVLTDYGAIPPGQRNILRFIFCDPRVRAAQYDWDSVARFVVAAFRADAARAGAVSHVADFVDELCRTSPEFAALWRDNDVRHHGDGTKRLRHPVHGTMSFEYSSFNVEGRSDLSMIVYNPATPEDADRIRTLLAERADEGHHHHHH
MSLSGLPESTLRYYEQIGIIDPIARDPSSGHRVYSDKDIESLTTIACLAATGMPLESMREYLKNRFDGPEGARRQIELLDAQSLRLAANAEALRIQQAYVSLKSLYWRAIAEGHEDEANRILEENKDVIENVKKQPGKGAIAREGHHHHHH
MSLSHFDSQAPTWDENPKRSLMINAIAEALRSHLPLREDFRVMDYGCGTGELSLAILPWVGYVEGIDTSKGMIDRFSQKIQERNLPNIKAKFMRAGEALEGEFDLVVCNMVLHHIPDPLLYIRQFESSIRPGGHLAIIDLDKEDGSFHPQGTPGVFHQGFSYEEIRAWLDYCYLEERLHHPSLHLIQKNEREYPLTLTLAQKPHEGHHHHHH
MSLSISFNNIPSALRVPLTYIEFDNTKAVSGPPTALHKVLMLGTKLATGSAKAGEAVRVSAYAQAKTLFGRGSQLAEMVKTFKAHNSTLDLWVLPLDEAPSGAKATGSVQITGTATQAGTFSLMIAGNNYKTAVTSGDTADVVAGKLQKLIAADQDVPVVATVAGNTITLTCRFKGETGNEIDLRCNYYSGEAFPEGLKATITDMKNGAVNPDMSVAITGLGAEWWNYIINPFTDTESLNLLRADLVKRWGPLKQIDGICFMAKRGTHAEVTTFAEQRNDYLFSLLATHKAPQPAYLWASAYAAVVAGSLAIDPARPVQTLVMDLLPPSMSDRWDLPERNTLLYSGVSTYTVNAGSQPQVEAAITMYRKNAFGDNDESYLYVETIATLSYLRYAIRSRITQKFPRHKLANDGTRIGPGQAIVTPKIIRNELLALFTELEFAGLVEDFEQFNQTLFVERDSNNPCRVNVLSNENLVNQFRIYAHAIQFILEGHHHHHH
MSLSKIIFPGFIDLHNHFPQTQVIASYGTKLLEWLNKYTFPNESLFVDDKHCERESKIFLDLLNHNGITTSVSFGSVHPNSVEYLFQEAHRRNMCVIAGNVLMDRNAPDTVLEKADKSYLSSKEIISKWHNVSRCKYAITPRFAITSTPELMEVSQTLCAENQSCYVQTHLSENIDEIETTLELFPDQKDYLSIYDKYKLLSNKTLLAHSIHLEMSEIERMKETKSIAVHCPTSNLFLGSGLFKFKELEEKGVRTAIATDVGGGTSFSMLRTLDEAYKVQQLGNYSLNPLASYFWSTMEGHHHHHH

Soluble on expression in E. coli, not soluble:
MSLRWEGALSAGQRKASNAIVVNLKAKTDMLLWAVAGSGKTEMMFEGMDWALRQGFRICVASPRVDVCLELLPRLKEAFPSIDIVCLYGDSKDNYQGEQFVIATTHQLIRFYEAFQVIFIDEVDAFPYAKDPFLEYAVMKARTKEGSTIIITATPEKKWQEECVRGKRNFVKIPGRYHRKKLPVPRTCWIGPWKKNLAKGKITPKLIQWMNDVKKKDQPALIFFPEIDAMNKFANALENKGYASEGHHHHHH
MSLRYTNSHLEDWIENLYKKIDITEPEQINFERIAEALDIRLSFKPVTSFALKHSGIYNICLDSRKSRTEQWYDFAHEFCHIYRHEGDKKTMPATWTDYLDWQSNYFTYHFCIPTCMLRNINLPYIQSHAIENVAWLFKVSPSFAKKRLSIYYRKLTQHLFSQTVTGNLCPPFLEGHHHHHH
MSLSEFEKYYPKISNLSTKLLDNPELGFKEYQTSKLIEDEIKSISPSIKVEHYLGTGLKVIFDNHKPKTIGIIAEMDDLYQPKHFKANPETGAAHACGHYTQVGIALAMINEIVKAERLKEFGTNLAFIFTPAEEFVDLDWRQEQKAKHKLDYFGGKQEAIKQGLFDHINYCVSVHAIGEEFKQRTVEINCDLAGFNFKYFDFYGEASHAAFAPESGVNAQSIATLFTTALALQRQQIKNPNRIRFNPVVIGENTESINVIPDHVKMGSDLSFFDIKYVQSLMKKFDQAAQGCASALGGKAKITTQVGYLPLHSNREMNALVKDTFLQEDRIPGLIENRGYTMAAGDIGDVGFIMPTIQIGYGGWTGTIHGSDFKLIDPEFVLKIFPEFVFNSTLNISNHLEKIDEYHHTKREYLKALKKMEGEGHHHHHH
MSLSELLDLSFLSEEEKDLILSVLQRDEEVRKADEKRIRRLKNELLEIKRKGAKRGSQHYSDRTCARCQESLGRLSPKTNTCRGCNHLVCRDCRIQESNGTWRCKVCAKEIEMKKATGDWFYDQKVNRFAYRTGSEIIRMSLRHKPAVSKREGHHHHHH
MSLSFLYFNDNSKIANAPLKNRFEKTQKESLIIKNNNEDKKAKSKPKFYLIIDDVGYDEFMLEQFIKLNLKITYAIIPFLPKSMSLYKKLKNANKTVIIHFPMQSKHRNSIEKFHINIKDKKEEIHKKIEKAFKKYPDAKIMNNHMGSLITSNKDLMKIILEKLKEIDRYFFDSVTIAGSVPEIIGKEIGVKVEKRDVFLDSKDTEESVTKELEKAKNIARKNGMVKVIGHIWSKNTLKVLKKEGPDLNQEFEFDNLLNLYEETIREGHHHHHH
MSLSFRFAFRPYQRRLRQPLRTARDAQITVRLGIWLRLETDTEVRWGEIAPWPSFGSETLAEAIAFCEAFPPDPEWEDLATAPDSLPACQFGFGCLRESNATDFLPTSAVLLPAGAAALTAIATASPATTYKWKIGLDLESELDLLPQLDRLLPSAAKLRLDANGGLTKAQADRLLQVLTAINERRSGRIEWLEQPLDPSQVDDLLQLVQDWPLVAIALDESVSQLSSLQFWQAQGWPGLYVLKPAIAGWPQTVRQFCQVHHLPVVVSSMFESPIGWRAVAAIAAQLGRADQAQGLGTTAWFTDDWESKTAAALWQHPEGHHHHHH
MSLSHNSSLPPFTASGFAEDQGAVRIWRKDSGDNVHFLAVFSPWRSGDTTTREYRWQGDNLTLININVYSKPPVNIRARFDDRGDLSFMQRESDGEKQQLSNDQIDLYRYRADQIRQISDALRQGRVVLRQGRWHAMEQTVTTCEGQTIKPDLDSQAIAHIERRQSRSSVDVSVAWLEAPEGSQLLLVANSDFCRWQPNEKTFEGHHHHHH
MSLSIPDRRAKLDRAHGVLSIRRQCRLLGLSRSSVYRTPLPANDDDLALMRRIDELFTARPFLGSRRMAWLISEDGVRINRKRVQRLMRKMGIEALGPKPRTSKPAPGHRIYPYLLRAMTIDRPNQVWATDITYIPMGRGFLYLVAVIDWASRAVLSWRLSNTMDVSFCVDALEEALSRFGKPQIFNTDQGSQFTSAAFTSVLEAAGIQISMDGRGRWMDNVFIERLWRSLKHEDVYLKFNEGHHHHHH
MSLSIVEPDLENCFRILIATDNHIGYAEKDPVRGQDSINTFREILELARDHDVDFILLAGDLFHENRPSRTCMHQTIALLREFTLGDKPIEFELLSDPMDGSTPGFSFPAVNYEDPNINIAIPVFSIHGNHDDPQGTGPEGALCALDVLSVSGVLNYFGKSDLVADENAADNPEKGIQIRPVLLRKGTTHVALYGCGNIRDQRMYQELRANKVKMFMPTGGNVPDSEWFNILLVHQNRVRHGPQNYVPENMFDDSMRLVIWGHEHDCRITPESVADKSYFITQPGSSVATSLAPGEAIPKHVGLLSIQGSQFQLEEIPLKTVRPFELDEVVLSYAAEQGAVDLNDRDSITSFLREQVEALILQAKKEGHHHHHH
